{"source": "paper PMC5548745", "about": "“Agonist-induced dimer dissociation as a macromolecular step in G protein-coupled receptor signaling” (Nature Communications, 2017)", "molecules": {"B1": {"name": "FZD6 TM5 synthetic peptide (peptide)", "peptide": "KKLDASRYFVLLPLCLCVFVGLSLLLAGIISKKK", "notes": "flanking lysines added to the transmembrane stretch; transmembrane helix 5 of human FZD6, Uniprot ID O60353; source: synthetic peptide (Pepscan Therapeutics or Fmoc synthesis, HPLC purified)"}, "B2": {"name": "Frizzled 6 (FZD6), wild type, expressed as V5-FZD6-mCherry and as FZD6-GFP (receptor, human, UniProt O60353 19-706, looked up)", "chain": "HSLFTCEPITVPRCMKMAYNMTFFPNLMGHYDQSIAAVEMEHFLPLANLECSPNIETFLCKAFVPTCIEQIHVVPPCRKLCEKVYSDCKKLIDTFGIRWPEELECDRLQYCDETVPVTFDPHTEFLGPQKKTEQVQRDIGFWCPRHLKTSGGQGYKFLGIDQCAPPCPNMYFKSDELEFAKSFIGTVSIFCLCATLFTFLTFLIDVRRFRYPERPIIYYSVCYSIVSLMYFIGFLLGDSTACNKADEKLELGDTVVLGSQNKACTVLFMLLYFFTMAGTVWWVILTITWFLAAGRKWSCEAIEQKAVWFHAVAWGTPGFLTVMLLAMNKVEGDNISGVCFVGLYDLDASRYFVLLPLCLCVFVGLSLLLAGIISLNHVRQVIQHDGRNQEKLKKFMIRIGVFSGLYLVPLVTLLGCYVYEQVNRITWEITWVSDHCRQYHIPCPYQAKAKARPELALFMIKYLMTLIVGISAVFWVGSKKTCTEWAGFFKRNRKRDPISESRRVLQESCEFFLKHNSKVKHKKKHYKPSSHKLKVISKSMGTSTGATANHGTSAVAITSHDYLGQETLTEIQTSPETSMREVKADGASTPRLREQDCGEPASPAASISRLSGEQVDGKGQAGSVSESARSEGRISPKSDITDTGLAQSNNLQVPSSSEPSSLKGSTSLLVHPVSGVRKEQGGGCHSDT", "notes": "Frizzled 6 (FZD6), human, Uniprot ID O60353; Two differently tagged copies of the same receptor are tested against each other, so they are written as one molecule; The FCS experiment used FZD6-GFP alone; also called FZD6 wt; source: HEK293, transiently transfected (Lipofectamine 2000), in living cells; not shown: V5 (on the crosslinked copy), N-terminal, kept; mCherry (on the crosslinked copy), …"}, "B3": {"name": "FZD6-GFP: GFP-tagged human FZD6 receptor construct (protein)", "chain": "B2 chain", "modifications": "left off: V5 (on the crosslinked copy), N-terminal, kept | mCherry (on the crosslinked copy), C-terminal, kept | GFP (on the other, mobile copy), C-terminal, kept", "notes": "GFP-tagged human FZD6 receptor construct"}}, "key": {"[1]": {"test_system": "ERK1/2 phosphorylation in HEK293 cells", "experiment": "P-ERK1/2 immunoblot, HEK293 cells expressing SNAP-FZD6 constructs", "format": "cell-based", "conditions": "HEK293; C59 5 µM overnight", "method": "Fig. 6 Relationship between FZD6 dimerization and phosphorylation of ERK1/2. a Mouse lung epithelial (MLE-12) cells were stimulated with WNT-5A (300 ng ml^−1) for 0, 2.5, 5, 10, 20 min. Cell lysates were analyzed for P-ERK1/2 and β-actin by immunoblotting. Additional information in Supplementary Fig. 6. b Bar graph summarizes three independent experiments. Densitometry data were normalized to the unstimulated control. […] Additional information in Supplementary Fig. 6. SNAP-FZD6 wt- and SNAP-FZD6 dimer mutant-induced ERK1/2 phosphorylation in the absence e and presence f of the porcupine inhibitor C59 (5 µM, overnight) were probed by immunoblotting for the SNAP-tag, P-ERK1/2, total ERK1/2 and β-actin. g The bar graph summarizes densitometry data of P-ERK1/2 normalized to total ERK1/2 from 6 different experiments. P = 0.0005; F (2, 15) = 13.08. ***P < 0.001. Empty vector transfection was used as mock. h Increasing amounts of plasmid of either SNAP-FZD6 wt or SNAP-FZD6 dimer mutant in the presence of C59 show a dose-dependent increase in P-ERK1/2 only with the dimer mutant. Data from three independent experiments for the dimer mutant were fit to a linear least-squares model (slope = 0.40 ± 0.10; R ^2 = 0.5943) and this line is shown superimposed. […] This dissociation-dependent activation can be evoked by agonist (WNT^high) or mutation of the dimer interface (symbolized by red stars). WNT^low conditions can be achieved in the presence of C59, which reduces FZD6 wt signaling\nMLE-12 or HEK293 cells (ATCC) were plated in a 24- or 48-well plate at a density of 100,000 or 50,000 cells/well, respectively. After 24 h, cells were transfected using Lipofectamine 2000 according to the manufacturer’s instructions. Cells were stimulated (24 h post-transfection) with 300 ng ml^−1 recombinant carrier-free WNT-5A (CF WNT-5A; R&D Systems). Stimulation was stopped by the addition of lysis buffer (1% NP-40, 150 mM NaCl, 50 mM Tris/HCl pH 8). Lysates were sonicated and analyzed by 7.5 or 10% Mini-PROTEAN TGX precast polyacrylamide gels (Bio-Rad) and transferred to PVDF membranes using the Trans-Blot Turbo system (Bio-Rad). After blocking with 5% milk or BSA in TBS-T, membranes were incubated with primary antibodies in blocking buffer: mouse anti-β-actin (1:30,000; Sigma #A5441), rabbit anti-FZD6 (1:1000; NovusBio #NBP1-00830), rabbit anti-Phospho-p44/42 MAPK (ERK1/2) (Thr202/Tyr204) (1:1000; Cell Signaling Technology #9101 L), rabbit anti-p44/42 MAPK (ERK1/2) (1:1000; Cell Signaling Technology #9102), rabbit anti-Phospho-C-RAF (Ser338) (1:1000; Cell Signaling Technology #56A6), rabbit anti-SNAP tag (1:1000, New England Biolabs #P9310S), and rabbit anti-HA (1:4000, abcam #ab9110) overnight at 4 °C. Proteins were detected with horseradish peroxidase-conjugated secondary antibodies (goat anti-rabbit and goat anti-mouse (Pierce)) and Clarity Western ECL Blotting Substrate (Bio-Rad). All uncropped immunoblots can be found in the Supplementary Information."}, "porcupine": {"test_system": "porcupine", "conditions": "cited from earlier work"}, "[2]": {"target": "B2", "experiment": "cell-based or functional assay"}, "[3]": {"target": "T1, FZD6 TM4 synthetic peptide (human)", "T1 construct": "flanking lysines added to the transmembrane stretch; transmembrane helix 4 of human FZD6, Uniprot ID O60353; Whole peptide as printed: [residues removed]; source: synthetic peptide (Pepscan Therapeutics or Fmoc synthesis, HPLC purified)", "T1 peptide": "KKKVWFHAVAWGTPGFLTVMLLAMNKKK", "experiment": "SEC; Superdex 30 analytical column, triple distilled water + 0.01% DDM, room temperature; 500 µM of each peptide, incubated together for 2 h", "conditions": "both partners purified"}, "[4]": {"target": "the molecule itself", "experiment": "fluorescence cross-correlation spectroscopy (FCCS); living HEK293 cells co-expressing FZD6-GFP and V5-FZD6-mCherry at low levels (10-1000 receptors per µm^2), no crosslinking; dynamic measurements before and after WNT-5A (300 ng ml^-1)"}, "FZD6–FZD6 dimer [5]": {"test_system": "FZD6–FZD6 dimer", "experiment": "dcFRAP of V5-FZD6-mCherry/FZD6-GFP (FZD6 dimerization)", "format": "cell-based, human", "procedure,_shortened": "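Live cells co-expressing V5-FZD6-mCherry and FZD6-GFP, surface V5 tag crosslinked with biotin-anti-V5 plus avidin in BE buffer at RT. Membrane areas photobleached, recovery imaged (488/561 nm) over 100 s; mobile fraction from background/bleach-corrected, pre-bleach-normalized intensity at 85-101 s. Cells with <40% crosslink-induced mobility reduction excluded.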"}, "FZD6–FZD6 dimer [6]": {"test_system": "FZD6–FZD6 dimer", "experiment": "dynamic FCCS of V5-FZD6-mCherry/FZD6-GFP", "format": "cell-based, human", "conditions": "HEK293; representative cell; G cc normalized to green auto-correlation amplitude; prior to stimulation", "method": "HEK293 cells were grown over-night in Lab-Tek eight-well chamber-glass bottom slides (Nunc, Thermo Scientific, Langensbold, Germany) coated with matrigel. Data were acquired in 10 s intervals. Collection intervals containing abnormal fluorescence peaks (presumably resulting from aggregates or ROIs where the overall fluorescence was decaying, putatively due to membrane movements) were discarded from the overall analysis. The total included measurements time ranged from 20 to 80 s per cell. Measurements were only undertaken on cells where the fluorescence was well localized to the cell surface membrane, as judged by visual inspection in the wide-field and confocal mode. Autofluorescence, as well as fluorescence from both GFP and mCherry in the intracellular region was negligible. The number of fluorescent receptors assessed in each experiment varied from 10–1000 receptors per µm^2 in each HEK293 cell.\nDynamic FCCS measurements of WNT-dependent dissociation and re-association of FZD (Fig. 5c–e) were performed on an FCS/FCCS-equipped Zeiss 780 confocal microscope (Zeiss, Jena, Germany). The instrument details were the same as those of the Confocor 3 described above, with the exception that 561 nm excitation was used for excitation of mCherry, that GFP emission was detected from 500 to 550 nm, and that mCherry emission was detected from 600 to 690 nm. Experiments on cells were performed as described above, with each measurement point consisting of 3–6 measurements of 10 s each. […]\nAssuming that M is FZD6-GFP (green) and N is FZD6-mCherry (red) and that all FZD6 form dimers, then the probability of finding a green–red FZD6 dimer is pgr=2×M×N/(M+N)(M+N-1)≈2×M×N/M+N^2=(2cgg+cgr)(2crr+cgr)/2cgg+cgr+crr^2 , where c gg, c gr, and c rr are the corresponding concentrations of the only green FZD6 dimers, the red and green FZD6 dimers and the only red FZD6 dimers. […] From the experiments, we determine the concentrations for c gg, c gr and c rr and compare the concentrations c gr with the c′gr for each cell to get an estimation of how close the model is to experimental data: cgr/c′gr=2cgr×(cgg+cgr+crr)/((2cgg+cgr)(2crr+cgr)) Analysis of the dynamic FCCS measurements of WNT-dependent dissociation and re-association of FZD6: Auto-correlation and cross-correlation curves were analyzed as described above and the amplitudes G g(0)−1, G r(0)−1, and G cc(0)−1 from each of the more than 300 measurements of 10 s duration were estimated by fitting to theoretical models. […]\nWith the settings described above for detection of emission, the crosstalk from the GFP channel to the mCherry channel, defined as the intensity detected in the mCherry channel divided by the intensity detected in the GFP channel, I r/I g, for a cell expressing only FZD-GFP, was 0.051 or 5.1 %. […]"}, "FZD6–FZD6 dimer [7]": {"test_system": "FZD6–FZD6 dimer", "experiment": "ratiometric FRET of C-terminally tagged FZD6 constructs", "format": "cell-based, human"}}, "note": "“Also recorded” adds a separate entry of the source."}
{"molecule": "Cc1cc(-c2ccc(CC(=O)Nc3ccc(-c4cccnc4)cc3)cc2)ccn1", "note": "[C59, 2-[4-(2-Methylpyridin-4-yl)phenyl]-N-[4-(pyridin-3-yl)phenyl]acetamide]", "values": [{"measurement": "effect of C59 on FZD6 wt-induced P-ERK1/2", "setting": "[1]", "value": "reduced to basal"}, {"measurement": "effect on endogenous WNT secretion", "setting": "porcupine", "value": "blocks secretion of WNT proteins; also recorded: abrogates endogenous WNT secretion"}]}
{"molecule": "KKLDASRYFVLLPLCLCVFVGLSLLLAGIISKKK", "note": "[HA-tagged TM5 minigene of FZD6]", "values": [{"measurement": "basal P-ERK1/2 level (immunoblot) in MLE-12 cells expressing the TM5 minigene, which interferes with the FZD6-FZD6 dimer; the TM1 minigene had no effect", "setting": "[2]", "value": 56.7, "unit": "%"}]}
{"molecule": "B1", "values": [{"measurement": "binding result", "setting": "[3]", "value": "binds"}]}
{"molecule": "B2", "values": [{"measurement": "stoichiometry N", "setting": "[4]", "value": 2}]}
{"molecule": "B3", "values": [{"measurement": "mobile fraction of FZD6-GFP before CL", "setting": "FZD6–FZD6 dimer [5]; HEK293, basal, without biotinylated anti-V5/avidin crosslinking, 85–101 s, mean ± s.e.m., N = 21 ROIs", "value": "80.8 ± 2.0", "unit": "%"}, {"measurement": "mobile fraction of FZD6-GFP after CL", "setting": "FZD6–FZD6 dimer [5]; HEK293, with biotinylated anti-V5/avidin crosslinking, 85–101 s, mean ± s.e.m., N = 31 ROIs", "value": "70.7 ± 2.4", "unit": "%"}, {"measurement": "dimeric fraction", "setting": "FZD6–FZD6 dimer [5]; extrapolated from varying expression ratios, mCherry to GFP 1:1", "value": "around 25%"}, {"measurement": "red molecules also green prior to WNT-5A", "setting": "FZD6–FZD6 dimer [6]", "value": 11, "unit": "%"}, {"measurement": "energy transfer between fluorophores (FRET)", "setting": "FZD6–FZD6 dimer [7]", "value": "not able to detect energy transfer"}]}
